{
  "source": "patent US20210371505A1",
  "about": "(Regeneron, published 2021)",
  "molecular_target": "Hemagglutinin of A/Wisconsin/67/2005 (H3N2) overexpressed on 3T3 cells (Influenza A virus A/Wisconsin/67/2005 …)",
  "assay": "cell-based or functional assay",
  "data": [
    {"binder": "H1H14611N2 (antibody, V domains shown) VH: EVQLVESGGGLVKPGGSLRLSCAASGFTFSGFSMNWVRQVPGKGLEWVSSISTSGNYMYYADSVKGRFTISRDNAKKSFSLQMNSLRAEDSAIYYCARGGGYNWNLFDYWGQGSLVTVSS VL: EIVLTQSPGTLSLSPGERATLSCRASQSLNSNYLAWYQQKPGQAPRLLIYGASSRATGIPDRFSGSGSGTDFTLTITRLESEDFAVYYCQQYGNSPLTFGGGTKVEIK", "values": [
      {"measurement": "EC50, ADCC with human donor PBMCs (CytoTox-Glo)", "result": 0.146, "unit": "nM"},
      {"measurement": "EC50, FcγRIIIA activation in the ADCC-Glo reporter bioassay (Promega)", "result": 0.871, "unit": "nM"}
    ]}
  ]
}
